assay: label from the status in PepcDB records

Row | Sequence | protein production
1 | MEILKKTGKFLLGVVIGVAIMMFADRYYVKGKRLIADNLPKEPVEYVNPYMGNISHLLVPTYPTVHLPNSMLRVYPERGDFTGDRLGGLPLIVTSHRGSSAFNLSPYQGDEAGLKPVIQYSYDREKIVPYRYQVYLDEANIEVDYAPSHQSAVYSLTFEKDGPAYLVFNSRNGELKCDGNTVSGFQYVDKKTKVYLYAETDKTPEKSGVLASGTVKYGKSSVEGKDAALTLAFSGQKEIGVRYGISFISTEQARKNLEREINSYDVSAIARIGRNEWNDALGKIQVSGGSENDKTVFYTSLYRCYERPVNLSEDGKYYSAFDGKIHEDGGRSFYTDDWIWDTYRATHPLRILIDKERETDIINSYLLMAQQMGTNWMPTFPEVTGDSRRMNSNHAVATVIDAWRKGVRGFDLEKAYEAARKGIEEKTLIPWSAAPSGWLDEFYKEHGYIPALKPGEKETVADVSPWEKRQPVAVTLGTAYDEWCLSQIAAELGKKEDAEYFLARSYNYRNLFNPETRFFHPKDKDGKFIEGVDYRYSGGLGARDYYDENNGYIYRWDVQHNIGDLVSLIGGNEVFTAALDSMFDTPLGMSKWQFYSFLPDHTGNVGMFSMANEPSLHIPYLYNYAGQPWKTQKRIRVLLDQWFRNDLMGVPGDEDGGGMSAFVVFSMMGFYPVTPGSPTYNIGSPVFSDVKIDLGGGNVFEIVADGASHDNKYVQSATLNGEELSGPWFDHSRITAGGVLSLKMGPKANKKWGIGNPPPSVGPMQK | failed
2 | MEILVVAVGILVDRLTKIWALDKLKKVQDIPIIKNFFDLTYVENRGAAWGIFSGKTLVLSAVTLLVLSAIIVYMIKYRPKSKLARISLSLVISGALGNLYDRVFYKYVVDLFSLHYKDIYYYPVFNVADICVVVGTIMIAIFIVLKDDKKDGKV | failed
3 | MEIQEMAKRFSPEFKQQAIDYALSNSHEPIATIAQKLGVGYSTLDKWIREANPVGSSKRQLSPEQQRILELEKEVKQLREANDILKKAHVYFLTDHAKKSTR | failed
4 | MEISCLLNEIKASIRYENQIVHIEETPARDACYAPLELEVRIKAALSGTGIEALYSHQAEAIEKVREGKDLVLCTSTASGKSLTYMIPVFEAVLKDPEATSLYISPLNALVNDQLKAFLEFEGALNSGAGIARYTGALSADQKRKIRDGKTNIVFTNPEMVHMSFLAWHHLWRRFFSNLRFIVVDESHYYRGVIGSNMANVLRRLLRVAEYYGASPQFICCSATIGNPEDHTETLLGREAVVVENNGSLQGPQKFVFWNPPLYMNGRGCTVRRSSFSEASALFTRAVQAGLQTLAFTRSRQGVERMYRTCMELLRDRELPSAICPYRSGYFDREREEIERKMNSGELRGVISTNALELGIDIGGLDVCILDGYPGTVMSARQQAGRAGRSGNESLVLMVAGTNALDQYYMRNPADFFARSSENAVLNPKNPYILAGHLLCAAKEIPLRESDEKYFGGGYSRVVELLEAEGLLAGSDMKYSTDPFPYKQVSLRGIDNNTYSLLAFEGERSFPIEKDIEETLAFRECHPGAVYIHRGESFYINRIDHEKREIHAIKTHDSYYTKPMIDSSVVVQETYAAKPLLHAPEVEVGLGEVEVTDRIAGYRKIRTHSDETMSAHEIEMPPITLQTVALWLKLPDRLQEMIGDHKLDFAGGIHAVEHAIISMYPLHLLVDRSDVGGVSTPSHPDLGSKSGIFIYDGHRGGVGYAEKGYDLIEEVLEGTLKAIESCPCESGCPGCIQSPKCGNNNEPLDKHAAIMLLHELLGKAPYIPPEKKEKHLSEARARKTIPQERKSSGDALDRVRRQLRRENINQEPQAGKEKKEKTFIATDENGGMIGVVSAPTPEKAAAKTFHKKLAGQQGATKEKPLEIRIRDLGAGSDYHFRAWTELFEAAENGDPESKEKKAVKKLFIRKMS | failed
5 | MEISTKTLHFIEEHREDDTRTLALQSKKYPDVDMAAAVTQIAGRQVAARKIPSWYPVSALWYPPHLSMEQCSSEATALYKASLLEGDTFADLTGGFGIDCSFISRNFKQADYVERQSGLCELALHNFPLLGLGHIRIHNRDGISYLQEMLPVDCLFLDPARRDGHGGKTVAISDCEPDVTVLEPLLVDKAKKVMVKLSPMLDLSLALNELKTVRAVHIVAVNNECKELLLILQKESVSSEVSIHCEHIAGNGESRHYTFTLKQEKTSPCLLADEVGTYLYEPNAAILKAGAFRSLTQTYPVAKLHLNSHLYTSVSLVPDFPGRRFRVEAVSGFGKKELKAFLMDMDKANITIRNFPLSVAELRKRLKLKEGGDDYIFATTLSGGQKVLIRGKKC | not failed
6 | MEITDVRLRRVETDGRMKAISSITIDGEFVIHDIRVIDGNEGLFVAMPSKRTPDGEFRDIAHPINSGTRAKIQEAVLAAYEVADEPAVNEESSADESVVEEN | failed
7 | MEKCDFYHIIVLSLNFPGYLKMEYGSTKMEERLSRSPGGKLALWAFYTWCGYFVWAMARYIWVMSRIPDAPVSGFESDLGSTAGKWLGALVGFLFMALVGALLGSIAWYTRPRPARSRRYE | failed
8 | MEKCSRETLLFIFITISSVATSTSTWMPMDGNYGASYCLSWRLAVETNNVRAWRIVPLQCLRYVEVYMLAGQYDRDVQLTVDQIKVYLNEIILPGDGMDAWILDVDDTCFSNVFYYRLKRYGCDPYDPTGFRTWAMKGESPAIQPVLELFYKLIETGFKVFLVTGRDEETLRQATLENLHNQGFTGYERLIMRTADNKRQSATTYKTRIRKEMMEEGYRIWGNVGDQWSDLQGEYSGDRTFKIPNPMYFVP | failed
9 | MEKESQTIFDKNVIEFVTVAAEFCAFLERAESMKRSTFVDTSLKILPLLYLKASMLPKCETIGDEAPETYVTEEIYEILRINLAGLMGDKDDYLDVFVQDMVYSDQPIKKSISEDLADIYQDIKDFIFVFQLGLNETMNDSLAICQENFGMLWGQKLVNTLRALHDVKYNLQDNEEEEENNEEGFYEPSEDDSCCEEGGCHCHDDECHCHEGSCHCHDDEK | failed
10 | MEKIIVRGGKRLNGTVRVEGAKNAVLPIIAAALLASDGKNVLSEVPVLSDVYTINEVLRHLNAEVVFENNQVTIDASKELNIEAPFEYVRKMRASVQVMGPLLARNGRARIALPGGCAIGSRPIDQHLKGFEAMGAKVQVGNGFVEAYVEGELKGAKIYLDFPSVGATENIMSAATLAKGTTILENAAKEPEIVDLANFLNAMGAKVRGAGTGTIRIEGVDKLYGANHSIIPDRIEAGTFMVAAAITGGDILIENAVPEHLRSITAKMEEMGVKIIEENEGVRVIGPDKLKAVDIKTMPHPGFPTDMQSQMMALLLQADGTSMITETVFENRFMHVEEFRRMNADIKIEGRSVIMNGPNSLQGAEVGATDLRAAAALILAGLVSEGYTRVTELKHLDRGYVDFHKKLAALGATIERVNEKVEEVKEQEVSDLHA | not failed
11 | MEKIRQPTHAGSWYTDNPTKLSSDLEEWLNATGLTKSPDVRGVIAPHAGYSYSGRAAAYAFANIDPTNISRIFLLGPSHHFYTPKCALSTATVYKTPIGNLPVDVEMIKEIRAMGKFGMMDLRVDEAEHSMEMHLPYLAKVFEGNNVKVVPILVGAVSPENEAMYGELLAKYVDDPKNFFSVSSDFCHWGSRFNYMHYDNTHGAIHKSIEALDKKGMDIIETGDPDAFKKYLLEFENTICGRHPISIFLHMLKHSSSKIKINFLRYEQSSQCQTMRDSSVSYASAAAKLET | failed
12 | MEKKILKPLRKTVSELLCVICTSLLLISLFSFTALAGDINTSPNINSDDKISASVVSKLTEISGDEQIPVIITLPNQKIAFNTAAGKYQIESEQKNLIKFLENEKSKNKVNKIKPIKIINAVAAKVNPEVLASLAGRSDVSKIELDEVVSIVGQSEPSFKKIAASTTLSTAASTNAWGVDKIDAPAVWQQGINGKGITVAVVDTGIDATHPDLDDLDDNPSTNDPKVVGWVDYINSQSSAYDDNGHGTHVAGIVSGTGDNGIQTGVAPGTKLLVAKVFDSEGDGYLSTCILGFEWAVNNNARIISFSGGSPEHDSLFTTMINKVVAAGVVPVIAAGNDGDGSGTITCPGDELNSLTVGATDSSDAIADFSSRGPVTLDDQTYIKPDISAPGVSIPSTYPGDGYAYGDGTSMAAPHVSGTVALILEKKPTMTPAEVKKELESTAVDLGSAGKDNDYGSGRIDAYDAVFGKGPVANFYAKPTSGKVPLTVAFTDTSTGTPTKWRWNFGDGSKSFLQNPKHKYSKAGTYTVNLTVKNAKGKNTVTKTDYIVVISKPTAAFSASPTSGKAPLTVAFTDKSSGNPTAWKWSFGDGTISREKNPTHQYLQEGKYKITLTVSNAAGKSTTKKINYIKVTTNTRPGIYSESK | failed
13 | MEKLEVGQLAPDFRLKNSDGVEISLKDLLHKKVVLYFYPKDNTPGCTLEAKDFSALFSEFEKKNAVVVGISPDNAQSHQKFISQCSLNVILLCDEDKKAANLYKAYGKRMLYGKEHLGIIRSTFIINTQGVLEKCFYNVKAKGHAQKVLESL | failed
14 | MEKQPNKLIREKSPYLLQHAWNPVDWHPWGEEAFSRARETGRPIFLSSGYSTCHWCHVMEHESFENAETAALLNRHFVPVKLDREEHPDVDHLYMMFVQATTGRGGWPMSVWMTPDLKPFFGGSYFPATERWGMPSFRSVLEHLANLWEHDRPRLLASAGSIMDQLSGLTRP | failed
15 | MEKQSPTALPGTPITDMPAAAETLLALMHAQAEVARLSEREQLFSSLLVSVNAVLWAFDWETQRMIYVSPAYEHIFGRSAGLLLADYSEWRDSIYPDDLNYAERSLSEVIEKGAVEDREYRIIRADGEVRWLSDKCFVSHRADASQRLIVVGIAEDITDKKHLEDELQRLATTDVLTQSSNRRHFFECAQREFELARLNGTPLAFLLLDIDDFKLVNDTYGHQEGDTVLQRIAESGRSALRRGDLFGRIGGEEFAAVFPGCAPEMAMQIAERLQREIQRQNFQANGSTFSITASQGLTNLGPEDQGLEALYGRADAAMYQAKRQGKNQIVLV | failed
16 | MEKSAGRGRPSVSVERIVATALEAVDEVGAQAFNMRMLAERLGSGTATLYRHFASKDEILIYVVDSVLGELLADQPEAVELVPQGQGSEGYSWQKACASGAERLYGVLRRHPGILPLLVSQIPIGPNGLKRREQGIALFLANGFPAELAARAYTSVAHYVLGFAIQQHSSASSEAAEGEELVEFFAALDASEYPAIATAGRHLPGISVEEEFRFGLKLIIDGLELAASAWRKADGC | failed
17 | MEKTVIYLLEDGYVDFVVEKIRTKMEKLLEEKDKIFVVLAGGRTPLPVYEKLAEQKFPWNRIHFFLSDERYVPLDSDQSNFRNINEVLFSRAKIPSGNVHYVDTSLPIEKACEKYEREIRSATDQFDLAILGMGPDGHVASIFDLETGNKDNLVTFTDPSGDPKVPRVTLTFRALNTSLYVLFLIRGKEKINRLTEILKDTPLPAYFVRGKEKTVWFVGK | not failed
18 | MEKVAFIGLGAMGYPMAGHLARRFPTLVWNRTFEKALRHQEEFGSEAVPLERVAEARVIFTCLPTTREVYEVAEALYPYLREGTYWVDATSGEPEASRRLAERLREKGVTYLDAPVSGGTSGAEAGTLTVMLGGPEEAVERVRPFLAYAKKVVHVGPVGAGHAVKAINNALLAVNLWAAGEGLLALVKQGVSAEKALEVINASSGRSNATENLIPQRVLTRAFPKTFALGLLVKDLGIAMGVLDGEKAPSPLLRLAREVYEMAKRELGPDADHVEALRLLERWGGVEIR | not failed
19 | MEKYNSLSDFLKEFYIPTYVLSAETEEEEEEESRPTPASPVLVFINSKSGGQLGGELILTYRSLLNHNQVFDLDQETPDKVLRRIYLNLERLKDDDFARQIREKLKIIVAGGDGTAGWLLGVVCDLKLSHPPPIATVPLGTGNNLPFAFGWGKKNPGTDRTAVESFLEQVLKAKVMKIDNWHILMRMKTPKEGGSCDPVAPLELPHSLHAFHRVSPTDELNKEGCHTFRGGFWNYFSLGMDAQISYAFHSERKLHPEKFKNQLVNQSTYVKLGCTQGWFCASLFHPASRNIAQLAKVKIATRNGQWQDLHIPHSIRSIVCLNLPSFSGGLNPWGTPNPRKQRDRGLTPPFVDDGLIEVVGFRNAWHGLVLLAPNGHGTRLAQANRIRFEFHKGATDHTFMRMDGEPWKQPLPLDDETVMVEISHLGQVNMLATHDCRSRSVFDPSTPRHQDGAEDYDDNEDDSVAEGEEFRKFGAADTFKIPDEGEHSNKKGRASRRRNSNVHGWSHVL | not failed
20 | MEKYPEIQQMRSKMREGDDTNEFKIRPLKGLSHPSGNLQMQRFQEDRRERIHSIRKRENQDGRLDLIGVVGEITVVIDDVVYEEEKLRKVVFTMKG | not failed
